Substitutions are numbered along the chain they refer to.
B1: BMS3h-48 (other)
VH: EVQLLESGGGLVQPGGSLRLSCAASGFTFADHGMTWVRQAPGKGLEWVSGIGPSGEATYYADSVKGRFTISRDNSKNTLYLQMNSLRAEDTAVYYCAKDRIPNLVFDYWGQGTLVTVSS
B2: BMS3h-56-8 (other)
VH: EVQLLESGGGLVQPGGSRRLSCAASGFTFRDYEMWWVRQAPGKGLERVSAINPQGTRTYYADSVKGRFTISRDNSKNTLYLQMNSLRAEDTAVYYCAKLPFTFEDWGQGTLVTVSS
B3: BMS3h-56-15 (other)
VH: B2 VH with R18L, Q39R
B4: BMS3h-56-19 (other)
VH: B2 VH with R18L, Y95H
B5: BMS3h-56-9 (other)
VH: B2 VH with R18L, K65M, T102M, E104D, W106R
B6: BMS3h-56-21 (other)
VH: B2 VH with R18L, A97L
B7: BMS3h-131-6 (other)
VL: DIQMTVSPSSLSASVGDRVTITCRANSSILWALAWYQQKPGKAPKLLIESSSGLQSGVPSRFSGSGSGTDFTLTISSLQPEDFATYYCVQNAVWPGTFGQGTKVEIKR
B8: BMS3h-131-14 (other)
VL: B7 VL with V6Q, S67T, S77G, G99D
B9: BMS3h-8 (other)
VH: EVQLLESGGGLVQPGGSLRLSCAASGFTFPSEEMSWVRQAPGKGLEWVSRISADGANTYYADSVKGRFTISRDNSKNTLYLQMNSLRAEDAAVYYCAKGRVPDLLFDYWGQGTLVTVSS
B10: BMS3h-61 (other)
VH: EVQLLESGGGLVQPGGSLRLSCAASGFTFGTTEMAWVRQAPGKGLEWVSSIGSAGAWTYYADSVKGRFTISRDNSKNTLYLQMNSLRAEDTAVYYCAKIGGHPQGQFDYWGQGTLVTVSS
B11: BMS3h-112 (other)
VH: EVQLLESGGGLVQPGGSLRLSCAASGFTFGESDMKWVRQAPGKGLEWVSSISPNGWDTYYADSVKGRFTISRDNSKNTLYLQMNSLRAEDTAVYYCAKSPSSRLKFDYWGQGTLVTVSS
B12: BMS3h-88 (other)
VH: EVQLLESGGGLVQPGGSLRLSCAASGFTFHETEMTWVRQAPGKGLEWVSAINRLGQDTYYADSVKGRFTISRDNSKNTLYLQMNSLRAEDTAVYYCAKGRIPGLVFDYWGQGTLVTVSS
B13: BMS3h-57 (other)
VH: EVQLLESGGGLVQPGGSLRLSCAASGFTFSHEDMTWVRQAPGKGLEWVSSISPNGWDTYYADSVKGRFTISRDNSKNTLYLQMNSLRAEDTAVYYCAKRTRSKFDYWGQGTLVTVSS
B14: BMS3h-208 (other)
VH: B13 VH with S30P, H31E, E32S, T35K, R99P, T100A, R101Q, S102V, K103L
B15: BMS3h-33 (other)
VH: EVQLLESGGGLVQPGGSLRLSCAASGFTFLSYPMHWVRQAPGKGLEWVSSIDSRGSVTYYADSVKGRFTISRDNSKNTLYLQMNSLRAEDTAVYYCAKGHSWTFDYWGQGTLVTVSS
B16: BMS3h-38-1 (other)
VH: EVQLLGSGGGLVQPGGSLRLSCAASGFTFEEEEMIWVRQAPGKGLEWVSAISGSGGSTYYADSVKGRFTISRDNSKNTLYLQMNSLRAEDTAVYYCSKEPFRFDYWGQGTLVTVSS
B17: BMS3h-38-211 (other)
VH: B16 VH with G6A, G53R, S54Q, S97G, F103Y
B18: BMS3h-38-201 (other)
VH: B16 VH with G6A, S97G, R102Y, F103Y
B19: BMS3h-38-205 (other)
VH: B16 VH with G6A, E30F, E31A, E32A, S97G, F103Y
B20: BMS3h-5 (other)
VH: EVQLLESGGGLVQPGGSLRLSCAASGFTFDEHDMSWVRQAPGKGLEWVSRIGPDGFHTYYADSVKGRFTISRDNSKNTLYLQMNSLRAEDTAVYYCAKGRIPTLHFDYWGQGTLVTVSS
B21: BMS3h-102 (other)
VH: B20 VH with D30S, H32A, D33E, S35N, G52T, P53T, F56D, H57S
B22: BMS3h-207 (other)
VH: EVQLLESGGGLVQPGGSLRLSCAASGFTFSNQDMTWVRQAPGKGLEWVSSIDSSGQLTYYADSVKGRFTISRDNSKNTLYLQMNSLRAEDTAVYYCAKVKSLARFDYWGQGTLVTVSS
B23: BMS3h-37-1 (other)
VH: EVQLLESGGGLVQPGGSLRLSCAASGFTFEWYEMQWVRQAPGKGLEWVSAISGDGYRTYYADSVKGRFTISRDNSMNTLYLQMNSLRAEDTAVYYCAKELGYFDYRGRGTLVTVSS
B24: BMS3h-37-202 (other)
VH: B23 VH with Q39R, Y56W, M76K, R106W
B25: BMS3h-37-206 (other)
VH: B23 VH with Q39R, M76K, E99G, G101E, R106W
B26: BMS3h-37-207 (other)
VH: B23 VH with Q39R, M76K, G101A, Y102F, R106W
B27: BMS3h-37-205 (other)
VH: B23 VH with Q39R, M76K, G101E, R106W
B28: BMS3h-37-212 (other)
VH: B23 VH with Q13R, Q39R, M76K, G101E, Y102F, R106W
B29: BMS3h-37-213 (other)
VH: B23 VH with Q39R, M76K, G101L, Y102F
B30: BMS3h-37-11 (other)
VH: B23 VH with Q39K, M76K
B31: BMS3h-193 (other)
VL: DIQMTQSPSSLSASVGDRVTITCRASQTIERRLNWYQQKPGKAPKLLIYLASRLQSGVPSRFSGSGSGTDFTLTISSLQPEDFATYYCHQYASPPLTFGQGTKVEIKR
B32: BMS3h-193-19 (other)
VL: B31 VL with D70E, A92E
B33: BMS3h-193-16 (other)
VL: B31 VL with T28A, F98L
B34: BMS3h-193-12 (other)
VL: B31 VL with A92E
B35: BMS3h-28 (other)
VH: EVQLLESGGGLVQPGGSLRLSCAASGFTFGDVPMSWVRQAPGKGLEWVSRIDPYGSNTYYADSVKGRFTISRDNSKNTLYLQMNSLRAEDTAVYYCAKGIMPSLTFDYWGQGTLVTVSS
B36: BMS3h-52 (other)
VH: EVQLLESGGGLVQPGESLRLSCAASGFTFSAYDMTWVRQAPGKGLEWVSRINPTGSYTYYADSVKGRFTISRDNSKNTLYLQMNSLRAEDTAVYYCAKAKIPNLVFDYWGQGTLVTVSS

Target: human CD40 (human, UniProt P25942 21-277)
Sequence (P25942 21-277 limits assumed): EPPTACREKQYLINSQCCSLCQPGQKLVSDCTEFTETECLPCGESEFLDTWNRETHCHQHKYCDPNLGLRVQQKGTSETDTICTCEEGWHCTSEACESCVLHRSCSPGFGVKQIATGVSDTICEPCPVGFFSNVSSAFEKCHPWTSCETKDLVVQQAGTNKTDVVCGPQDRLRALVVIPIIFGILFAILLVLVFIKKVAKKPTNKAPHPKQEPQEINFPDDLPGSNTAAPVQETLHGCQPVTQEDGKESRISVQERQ
Experiment: cell-based or functional assay

B1 and B9 cannot be ordered by “CHO-hCD40L-driven Human B Cell Proliferation EC50” value: > 7000 nM for the first, > 7000 nM for the second.

B10 and B13 cannot be ordered by “CHO-hCD40L-driven Human B Cell Proliferation EC50” value: > 7000 nM for the first, > 7000 nM for the second.

Compared with B15, B17 is lower in “CHO-hCD40L-driven Human B Cell Proliferation EC50” value: > 7000 nM for the first, 82 nM for the second.

Going from B18 to B19, the “CHO-hCD40L-driven Human B Cell Proliferation EC50” value falls from > 7000 nM to 1100 nM.

B20 and B35 cannot be ordered by “CHO-hCD40L-driven Human B Cell Proliferation EC50” value: > 7000 nM for the first, > 7000 nM for the second.

In the case of B36, the “CHO-hCD40L-driven Human B Cell Proliferation EC50” value is reported as > 7000 nM.

First: B1
Second: B2
The “hIZCD40L-driven Human B Cell Proliferation EC50” value of the first is higher: > 7000 nM for the first, 5 nM for the second.

First: B3
Second: B4
The “hIZCD40L-driven Human B Cell Proliferation EC50” value of the first is 1.5-fold lower: 2 nM for the first, 3 nM for the second.

Going from B5 to B6, the “hIZCD40L-driven Human B Cell Proliferation EC50” value falls from 3 nM to 2 nM (1.5-fold).

Going from B7 to B8, the “hIZCD40L-driven Human B Cell Proliferation EC50” value falls from 141 nM to 24 nM (5.9-fold).

B9 and B10 cannot be ordered by “hIZCD40L-driven Human B Cell Proliferation EC50” value: > 7000 nM for the first, > 7000 nM for the second.

B11 and B12 cannot be ordered by “hIZCD40L-driven Human B Cell Proliferation EC50” value: > 7000 nM for the first, > 7000 nM for the second.

B13 and B14 cannot be ordered by “hIZCD40L-driven Human B Cell Proliferation EC50” value: > 7000 nM for the first, > 7000 nM for the second.

First: B15
Second: B16
The “hIZCD40L-driven Human B Cell Proliferation EC50” value of the first is higher: > 7000 nM for the first, 142 nM for the second.

First: B17
Second: B18
The “hIZCD40L-driven Human B Cell Proliferation EC50” value of the first is lower: 2 nM for the first, > 70 nM for the second.

Compared with B19, B20 is higher in “hIZCD40L-driven Human B Cell Proliferation EC50” value: 4 nM for the first, > 7000 nM for the second.

B21 and B22 cannot be ordered by “hIZCD40L-driven Human B Cell Proliferation EC50” value: > 7000 nM for the first, > 7000 nM for the second.

Compared with B23, B24 is 420-fold lower in “hIZCD40L-driven Human B Cell Proliferation EC50” value: 250 nM for the first, 0.6 nM for the second.

B25 and B26 are within 1.5-fold of each other in “hIZCD40L-driven Human B Cell Proliferation EC50” value: 5 nM for the first, 4 nM for the second.

First: B27
Second: B28
The “hIZCD40L-driven Human B Cell Proliferation EC50” value of the first is 2-fold higher: 2 nM for the first, 1 nM for the second.

Going from B29 to B30, the “hIZCD40L-driven Human B Cell Proliferation EC50” value rises from 0.7 nM to 8 nM (11-fold).

Compared with B31, B32 is lower in “hIZCD40L-driven Human B Cell Proliferation EC50” value: > 7000 nM for the first, 233 nM for the second.

B33 and B34 are within 1.5-fold of each other in “hIZCD40L-driven Human B Cell Proliferation EC50” value: 387 nM for the first, 277 nM for the second.

B35 and B36 cannot be ordered by “hIZCD40L-driven Human B Cell Proliferation EC50” value: > 7000 nM for the first, > 7000 nM for the second.

First: B17
Second: B18
The “CHO-hCD40L-driven DC Activation IL-12 EC50” value of the first is lower: 18 nM for the first, > 800 nM for the second.

First: B19
Second: B24
The “CHO-hCD40L-driven DC Activation IL-12 EC50” value of the first is 2.9-fold higher: 29 nM for the first, 10 nM for the second.

B25 and B26 are within 1.5-fold of each other in “CHO-hCD40L-driven DC Activation IL-12 EC50” value: 23 nM for the first, 15.5 nM for the second.

For B27, the “CHO-hCD40L-driven DC Activation IL-12 EC50” value was 6.6 nM.

First: B17
Second: B24
The “T-B cell MLR EC50” value of the first is 2.4-fold higher: 200 nM for the first, 83 nM for the second.
